# The domain aggregation screens of Martell et al. (2025)
# Assay: soluble fraction after stress (log2 fold change); higher = more stays soluble; pooled small domains, quantitative proteomics
# Details: stress: pH 4
# In short: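 Aggregation propensity is read out as the fold change in how much of each domain remains soluble after acid stress. The custom small-domain libraries were pooled, held at pH 4 and analysed with high-throughput quantitative proteomics. On the log2 scale used, higher values mean more of the domain stayed soluble.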
row,Sequence,soluble fraction (log2)
1,HMNEMEWVAKLIDQLPERERMILQLREIEQYEFDQIASLMEIPEGTVRVYLSRIRKKIKKQFIEIQSH,-0.405
2,HMGEQVFSRKDLAINGNDLKAVFGWPPGPKYREALDQLFHWVLEDPARNRRETLLAYLHSLYD,-0.774
3,HMQHYQFEVDEASSKKRLDVFLSENLPEISRSRLKKLIDEKRVTVNEMSRPAGYKVRVKEKIEFHIPPL,-0.317
4,HMQISNEEELEKIIENVIESNPEKVKAYQSGKSGLIGFFMGQVMKESGGQANPNLVNQILKGKL,0.109
5,HMGMGIGQIIKEKRTALKMTQNELAERLGVSQQSVTGWENNAAVPRESAVRGMMDIFGLSRNELFGEP,0.0969
6,HMLDLNEVEFYAIENQLKENLKIDSKRFYELVPLIKGYQEDDIIQVLRWLIDNNRIIRHKDESLTWHS,-1.02
7,HMWNLPDPVVRPEGNVTVYENFKNTVEVLNREADLVLKFLQNEFGTSANIDDTGRARLTGSFSTDRVSSVI,-0.529
8,HMNILNYIIENENQEVRVDKFLSDTIEDMSRSSVASIIEDGGLLVNDKLQNKKYKLKIGDKVQFTVPDPV,-0.121
9,HMSYTPGQWVEASMPNATFFRIVPSGNATADKMLAVATPMKVISTSGTYVKVELDSGDVGFVPEIMV,0.102
10,HMDNTFEEVKEKLLDLLKERPLTPAEVSKRMEEDKNILAQVIQYLLEEEIIKTEDGMLSKVIG,-0.0649
11,HMSGEPKNERQIEVPDVTKKSIREANNILTSEGLRLRIEGTGLAVSQKPAAGTMVEPDTIITVTFQAP,-0.0704
12,HMENDGQFLRAEREKYGLTLTDIYEHTHIPIKKLKAYEMWEEEMPPRTRALLELYFDQVAFEYDS,-0.556
13,HMTETPDDLLAALKKNKKAQATFDAFSPSNKKEYILWITEAKTEATRTKRLETAIEWMSEGKARNW,0.0435
14,HMKIQEVDYSTFLNMLNEKSIAQVEIQDNQIAFNSNQEGNKQIYVTGRIEEDTELVNRLQAAGVQFSRV,-0.638
15,HMGTRPAYAADAPNPQKRFIYHRIVDQLRNKATGAPISYRAIAAETGVSVQTVINIKNRMNQMLSEK,≥ 0.43
16,HMKGTVLAPGIILNADDQRFTYLQEDVASVAKDGAAIVLKQGDEVDFIADGQTAKQIYLTKT,0.0738
17,HMKVFTEDEMLEKIKEYLSTNSYINRRVMETQFGLRQNIALKWLKHFTEIGVLRKEGERNSPIYFLNN,0.154
18,HMFHDPTMEETLINLKGITNEVLSLLSSSKIKKLEDLAEMSVPELRDIVENISDEEASALIMEARKPWF,-1.81
19,HMFTIGENIRDLRLERAITQEQLAEQLNVSAPAVSKWERGEAYPDITLVPKLAEILGVSTDKLFGVD,-0.265
20,HMGIDVSAFSDTALEVLRLQAAGYTTREIAQQLHITQRTVKYHASENYRKLDARNLVDAVQIAQSLHI,-0.602
21,HMIYYTEEELVKRYIDFSNYLGKKEGASDVDFKKYAVEFGIPSRDHYNRKFITLFNLKIKAGYKPIRH,-1.13
22,HMETEAGIKAYLSSSMIKGIGPVTAQRIVERFGKRTLYVLDQMPEKLLDISGISEAKLEEILNGYRKS,-0.532
23,HMQARDQNVDEGKALLEKEFSRLALENLDRDKLANAVNYPTRDDMYAAIGAGDLRVGQVLHQAQQLF,-0.323
24,HMQPSQTLSATVEFPDRLDRFLALAFPEVSRARFQRLIAEGHVSVEGVPATEIRHKLKAGQRVEAVIPPA,0.197
25,HMTSHYTVLGVKETDTIEMIRTHYRKLILQFHPDKNQHLTEEERKKLEVKVLQIREAYEKIKKEK,-0.816
26,HMKFHENLIALRRREGWSQEELGNRIGVTRQTVSKWELGLTTPELEKLVQLADVFGMTTDQLVGR,-0.111

row,Sequence,soluble fraction (log2)
1,HMDFITPYEIEQGQYEGAELYEDGKFEEAFSLSSIAAQRGMKTAQYLLGIMFLKGEYVDQSLAIGMAW,-1.18
2,HMGPWTETAAKGDAVSKRMLITWLQENADAEFLAAQKLTGQATSVAKRVTKDQLVELYLSVTTAA,-0.149
3,HMYLSNPTYRGDSLVDALTQIGVDASFASRRDLARKNGIENYTGSAKQNLELLQLLREGRLR,-0.173
4,HMSVLLKEEGSLQLARHGAAYFIIYSAQEHPNQRRHLKISEEESNRIMEGTPIEEIFLAYSG,-0.972
5,HMAGEDPANLELMRLMDEEYMEHPTKGVLGMVDFLRALGILTGPKRVRRLLRKMGIMAIYPK,-0.396
6,HMSDSAFAEMRRELEALRNSNAEYERALSNFFPEAEDKALAAEAFYQNREYDELVAEREEANVIDGLKR,-0.815
7,HMKNENSLLVSRLAEEKIINRAKLVLMEYLKLSEPQAHRYIEKQAMDLQISRAEVAARVLETYE,0.101
8,HMTPQVALNDTETAIYEKMKQEKQMLLGELRAQFDISNKLWDTSLKTLTKNQLLAVSKEDDLLFVKL,-0.437
9,HMSPLDSHLGRRIALRRQQLNTSAADLEKAISMVPGSVARFEAGRQSLNATQLFTLSRALDVPVLYFFEG,-0.418
10,HMQLVPGIGRLSARELEVFTLIGRGLGTSEIGKKLGVSAYTVQTHRNHIKEKLNLPNAAAITYWAIQWAHG,-0.338
11,HMPGTEAQDGEVLLDALRRIHPDSSTGTLRRMLTQGRVQVDGTTVHAAKAELTSGQHVEVVAR,-0.0746
12,HMDAVKKKVQSTNTLLDVLKQMLPQTSSNTLRKMLTNQRITVDGETIHRAKHTVEKDQTVEIHPKP,≥ 0.43
13,HMYVTGSAIRRLREKRKLTQAQLAAALSVSDKTVSKWETARGLPDITLLEPLARALQVSVPELLSGEEV,-0.0388
14,HMGYDSYDADTIPKLKIGSIVEHPKFGEGSIISKAGAEVTIAFKIKGVKKINLEYTSIKVLK,0.117
15,HMDENDPYEILEIDRLASDDQVKAKYRALIRENHPDVLMAKGVPQEFIDLANRKMAVINAAYDRIEKEREF,-0.616
16,HMPQLVGDVDGDGRVSVTDGEWIRASYGALPWYAGWRAAADLDGSRKIDVVDLELLRTKMGN,-0.772
17,HMSDPDPAEQALLRQFMTRYAAYRRRGQHPAGAFRTASLEVFGQEPSGDLRDVIVDLESGLV,-0.59
18,HMDINMELGKNIRRLRKLNNLTQQSLANQMNRSKTLIALWEKGERDPSSIDLKRLSEIFNVRADDIIG,-0.00935
19,HMTNPPITTEARNLVVEQLKELNALHPEKARELADSYKKEFNVPKVIGHITEARHGEFLALAISKIDES,-0.399
20,HMTGIRVYPNPTSSELRFSVATDAALYDATGARLRVVRGSDMMDIRDLASGTYYVRFADGSTQSVVVT,-0.0136
21,HMTNPPTPADTLFNTVRGVLQSILKSPMKDTEVASALNVSKAQARSWLQRLSDEGLIEKRKNPTAYVL,-0.321
22,HMNGDYFEYRYAVNGSRSTPPSLSKTSRNPSGWSTTVPTVGNLQYLWFTVAKINGETNSLIQNWSTPARQT,0.143
23,HMSRDYKTELQERLQVNGPVKIEYQVIAEDESKPSFKVQLLVNDKKISEGQGRNKKAAEQQAAQAAL,0.0788
24,HMEPERRHLEVPAEAEGERIDRFLASQLENLSRSRIQALIKAGYVRNRRGTIEDPGLRVKPGDAFVVDLPP,0.255
25,HMKQGKGIIVVDGKLMPEDFNVATLSLDEVESITVLKGEKAVALYGEKAKEREVLLITTQKG,-0.316
26,HMDMTPEEFLAWARHKPFGDPFPKTQTVTFLVPLLGVSRTNIFTWISGKVNPSKTSLLLMEALKRENR,-0.444

row,Sequence,soluble fraction (log2)
1,HMGVTVDEVHRNFESGMNVVHKKFGAGVVDSFDEGKIRINFDGVIKVFIADVLINSGMLESVSYTH,-0.922
2,HMGDITALMPGKVIQIIVKEGQEIKVGDPLIVIESMKMENTISSEVNGTIKSINIQIDDNVQFDQVLFTV,-1.03
3,HMKKATYDVMVREALVSFKKKGATLQSIKKKIKADYAIEANATAVKSAIQKGMEAGSIRKSYDLYFFMD,0.15
4,HMISEAEGTILQLLKEADGTLPFTYKSDADEIKKVFGMSKKNFKRTLTELIEAKKIQLLDDAIVL,-0.0222
5,HMSMSVLFSELDQKDAGVIVEKLKERKIPYELQSGGSAIMVPANVLHETRLQLAAEGLPQSS,0.0876
6,HMGDIQFMEYRINHSSGWIGKNISDFAAVSKNLVILIKRGQDVVIPRGPTAIMEDDVLVLHA,-1.15
7,HMRKEEFIRELVLELKQNVSEQVILEQKRFYEEYILTEVRGGKTEEEVIASLSEPRLLAKSIIDAAEAGGD,-1.5
8,HMEFQSIGGKIRIGREREHLTQAELAQKLSVTRQAVSNWERDKTLPDIYMIREIAEIFGLTLDEFMEGAKK,0.0806
9,HMGALSLDMLFDRFDALQEQSMGDKTEGGQELRGMIRTFIEQEKLDIRVTRTTTNAALLEMIEKEMQG,0.0204
10,HMNDIDKFVAALVDQDTMAGTNRAFDENDIQTMKNMSSIEDVKQYAVANGLSSGKVNNALISAGL,-0.195
11,HMNGEAQTMYVTARTLNVRKGPGTSYAKAGTLSRGTAVQVVGFSGNWAKLSNGYYVSTSYLAKI,0.0208
12,HMEQAAQPQTGFDPRRLKAGDAVHLLALDQRGVLLEDPKPGAESAPVSVGVAGVRVVVPLREMEALPAG,-0.0942
13,HMFESQYIGKIATAITDISAFSGRLKIYDENWEARTLGEDAPEIKKGAKVKIVRHDDLTMFVEKK,0.087
14,HMKALHEEIAEKIQEQILRSNLAPGDKLDTELELAARYGVSRSTIRQALIQLESAGLIDRLHGRGTFVAD,0.029
15,HMRNSFTVENTGERLDVFLTGQMPEFSRSHIQKLIASGQAWVNGVNRKGNFKLKPHDVVELEVPEPE,0.169
16,HMNVRAYKVSKESELTVEEKLEAVRGYGVADLLYVIREFEENPGKYEPEVIKLIVQQLTDKGIM,-0.94
17,HMATRAEQMAKTHQAILDTARELFLRNGYDATSTRDIANAIGITQPALYHHFKDKEVIFLAVI,0.101
18,HMEDPLGDLIGRIAAATGRPVQDIVAEVHRVVTDHFDGNLRVEAAAVILARKYGVAFEDKLSALQRSV,-0.559
19,HMKTGNIIAVSLVWKGKYYMIRMFFPSAARPSRADVQTEIEKVYPGSKLSSFSVSDYEPGQPLLQV,-0.146
20,HMEKEYMKNVVGMEYRQARVLLGDMGLELAFQPVYETSDKYPTDVVVSTEPAADQPLTKGQTVILHIST,0.299
21,HMSWEQELIEKANEIIDLYPEKRSALGPLLYLAQERDGYISDESIVEISNLVGITEVQVKSVASFYSMYK,-2.88
22,HMGNWEQQLRSWADGELATGKQDILTTAVPAFERALIETALSHTNGRKRDAAELLGWGRNTLTRKLKELGM,-0.46
23,HMINAQETEIYRFLIEKANRLYSMVLGLKREELMTATRQFEEEVKHSSIHHLPKIYQAFSSYLELLERG,-0.207
24,HMKKISAKQQQILDYISSYSLEHGYPPSVREIGAEMGLRSPSTVHAHLKKLQEAGYLEPNEHKSRALTP,-0.0896
